Data: publication PMC10191176 (Nature immunology, 2022)

Columns and labels:
[1] = biological target: HLA-DR4 loaded with CLIP peptide (UniProt P04233); assay: SPR
[2] = biological target: HLA-DR4 (DRA*0101/DRB1*0401) with the linked p24 HIV Gag peptide 164-183 (HLA-DR4^HIV) (human | HIV); assay: SPR
[3] = biological target: T1, yeast-displayed FGL1^FD Y244A/E245A (human, UniProt Q08830 58-312, Y244A | E245A); assay: flow cytometry on cells
T1 sequence (looked up): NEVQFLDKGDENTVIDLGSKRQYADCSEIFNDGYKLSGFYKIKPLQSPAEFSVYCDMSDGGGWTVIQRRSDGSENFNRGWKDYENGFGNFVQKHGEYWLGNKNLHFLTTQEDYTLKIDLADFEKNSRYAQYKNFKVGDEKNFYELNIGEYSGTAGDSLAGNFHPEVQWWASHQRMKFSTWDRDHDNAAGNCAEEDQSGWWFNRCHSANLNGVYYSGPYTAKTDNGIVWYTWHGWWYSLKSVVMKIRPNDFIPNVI

[4] = biological target: T2, yeast-displayed FGL1^FD E250A/E251A/D252A (human, UniProt Q08830 58-312, E250A | E251A | D252A); assay: flow cytometry on cells
T2 sequence (looked up): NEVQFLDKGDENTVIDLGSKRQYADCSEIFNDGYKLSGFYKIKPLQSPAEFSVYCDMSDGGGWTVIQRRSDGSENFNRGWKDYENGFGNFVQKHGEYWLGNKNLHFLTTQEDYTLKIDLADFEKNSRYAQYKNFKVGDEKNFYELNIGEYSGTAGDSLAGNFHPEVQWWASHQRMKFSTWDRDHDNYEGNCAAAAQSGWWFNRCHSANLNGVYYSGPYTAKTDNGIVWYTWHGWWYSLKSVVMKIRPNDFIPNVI

SEC-MALS = biological target: the molecule itself; assay: SEC-MALS

Chain of HLA-DR4 loaded with CLIP peptide (P04233 whole entry, looked up, tested part not stated): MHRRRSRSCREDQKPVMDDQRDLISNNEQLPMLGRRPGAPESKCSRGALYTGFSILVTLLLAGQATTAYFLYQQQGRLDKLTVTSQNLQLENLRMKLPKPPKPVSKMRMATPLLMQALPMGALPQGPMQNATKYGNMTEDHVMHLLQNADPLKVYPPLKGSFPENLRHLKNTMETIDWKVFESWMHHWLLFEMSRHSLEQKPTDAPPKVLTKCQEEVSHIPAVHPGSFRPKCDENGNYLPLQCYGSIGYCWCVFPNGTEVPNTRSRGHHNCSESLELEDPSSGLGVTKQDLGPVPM

hLAG3* (human LAG3 extracellular domain with the M171I mutation) (from UniProt P18627 23-450) (domain or fragment)
Kd [1]: 2.45 µM
Kd [2]: 5.2 µM

B1: hLAG3* (human LAG3 extracellular domain with the M171I mutation) (domain or fragment, UniProt P18627 23-450, looked up)
chain: LQPGAEVPVVWAQEGAPAQLPCSPTIPLQDLSLLRRAGVTWQHQPDSGPPAAAPGHPLAPGPHPAAPSSWGPRPRRYTVLSVGPGGLRSGRLPLQPRVQLDERGRQRGDFSLWLRPARRADAGEYRAAVHLRDRALSCRLRLRLGQASITASPPGSLRASDWVILNCSFSRPDRPASVHWFRNRGQGRVPVRESPHHHLAESFLFLPQVSPMDSGPWGCILTYRDGFNVSIMYNLTVLGLEPPTPLTVYAGAGSRVGLPCRLPAGVGTRSFLTAKWTPPGGGPDLLVTGDNGDFTLRLEDVSQAQAGTYTCHIHLQEQQLNATVTLAIITVTPKSFGSPGSLGKLLCEVTPVSGQERFVWSSLDTPSQRSFSGPWLEAQEAQLLSQPWQCQLYQGERLLGAAVYFTELSSPGAQRSGRAPGALPAGHL
modifications: biotin on the BAP tag (BirA ligase) in binding experiments
reduction of binding relative to wild-type FGL1^FD [3]: 75%
reduction of binding relative to wild-type FGL1^FD [4]: 80%

B2: murine LAG3 extracellular domain (mLAG3, residues 23-442) (domain or fragment, mouse, UniProt Q61790 23-442, looked up)
chain: SGPGKELPVVWAQEGAPVHLPCSLKSPNLDPNFLRRGGVIWQHQPDSGQPTPIPALDLHQGMPSPRQPAPGRYTVLSVAPGGLRSGRQPLHPHVQLEERGLQRGDFSLWLRPALRTDAGEYHATVRLPNRALSCSLRLRVGQASMIASPSGVLKLSDWVLLNCSFSRPDRPVSVHWFQGQNRVPVYNSPRHFLAETFLLLPQVSPLDSGTWGCVLTYRDGFNVSITYNLKVLGLEPVAPLTVYAAEGSRVELPCHLPPGVGTPSLLIAKWTPPGGGPELPVAGKSGNFTLHLEAVGLAQAGTYTCSIHLQGQQLNATVTLAVITVTPKSFGLPGSRGKLLCEVTPASGKERFVWRPLNNLSRSCPGPVLEIQEARLLAERWQCQLYEGQRLLGATVYAAESSSGAHSARRISGDLKGGHL
stoichiometry N (SEC-MALS): 2
